Measured values taken from patent publication US20040014148A1 (RIGEL PHARMACEUTICALS, published 2004).
No end group written: not given here.

Experiments:
[1] = biological target: T1, human chloride intracellular channel 1 (human, UniProt O00299 1-241); assay: cell-based or functional assay
[2] = biological target: T1, human chloride intracellular channel 1; assay: cell-based or functional assay; remark: listed apart in the source

Binder | Reporter Ratio (A5T4 reporter line, IL-4 induced germline epsilon transcription) [1] | endogenous epsilon inhibition ratio (TAQMAN quantitative PCR, +IL-4/+Dox to +IL-4/-Dox) [2] | reporter ratio (original library clone screen, A5T4 cells) [2]
LYTSILLHGATTASMTKPLA (also: expressed as BFP fusion (BFP, alpha-helical linker, peptide) in GAL4 bait vector, fusion sequences not given here) [peptide DL03wt] | 1.5 | 2.11 | 1.32
LYTSILLHGATTASMTAALA [peptide DL03KP] | 1.77 | – | –
LYTSILLHGATTASMTKPAR [peptide DL03LA] | 1.22 | – | –
LYTSAALHGATTASMTKPLA [peptide DL03IL] | 1.16 | – | –
